T1: ETS1 x2 (Homo sapiens, UniProt P14921)
T1 sequence: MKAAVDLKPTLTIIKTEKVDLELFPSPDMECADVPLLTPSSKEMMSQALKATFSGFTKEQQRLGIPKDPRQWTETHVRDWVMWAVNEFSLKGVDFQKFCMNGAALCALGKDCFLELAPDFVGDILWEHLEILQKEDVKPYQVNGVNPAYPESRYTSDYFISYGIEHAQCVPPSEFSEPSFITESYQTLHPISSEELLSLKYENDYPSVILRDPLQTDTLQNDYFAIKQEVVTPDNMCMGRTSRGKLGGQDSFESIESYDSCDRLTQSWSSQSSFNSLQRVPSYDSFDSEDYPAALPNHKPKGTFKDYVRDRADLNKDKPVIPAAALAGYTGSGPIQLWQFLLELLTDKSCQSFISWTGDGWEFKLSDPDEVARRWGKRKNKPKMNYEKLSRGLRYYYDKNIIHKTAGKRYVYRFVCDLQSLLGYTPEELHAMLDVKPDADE

B1: Table S2 A row 1411 (dsDNA)
DNA 1: GAGGGGGAGGTTTCCGGGGCCTGTGGTTACTACACT
DNA 2: AGTGTAGTAACCACAGGCCCCGGAAACCTCCCCCTC
B2: Table S4 A row 1719 (dsDNA)
DNA 1: GGACCTACAGGAAGACTGACTAGCTTCCTTCGAGCC
DNA 2: GGCTCGAAGGAAGCTAGTCAGTCTTCCTGTAGGTCC
B3: Table S4 A row 1783 (dsDNA)
DNA 1: ACCCCGGATGGCACCGCGAGTCCCCGTTTCCGACAA
DNA 2: TTGTCGGAAACGGGGACTCGCGGTGCCATCCGGGGT
B4: Table S2 A row 1288 (dsDNA)
DNA 1: TCTCTATGGTTTCCGTTGGGTGTGTGGTTTTTTTGT
DNA 2: ACAAAAAAACCACACACCCAACGGAAACCATAGAGA
B5: Table S2 A row 378 (dsDNA)
DNA 1: GAAAAAAATGAGCTTCCTTTAACCACAACTGTATTA
DNA 2: TAATACAGTTGTGGTTAAAGGAAGCTCATTTTTTTC
B6: Table S2 A row 963 (dsDNA)
DNA 1: GGGTCGCGGCCTTCCGGCGAACGCGGTTACCGTGGA
DNA 2: TCCACGGTAACCGCGTTCGCCGGAAGGCCGCGACCC
B7: Table S2 A row 1000 (dsDNA)
DNA 1: CCCATTTCCTGCTCTCCAGAGTTAACCACTGAAGTC
DNA 2: GACTTCAGTGGTTAACTCTGGAGAGCAGGAAATGGG
B8: Table S2 A row 308 (dsDNA)
DNA 1: GCCGCTGCCTCTTCCTGTGTGGTTTTTCAGGGCTTA
DNA 2: TAAGCCCTGAAAAACCACACAGGAAGAGGCAGCGGC
B9: Table S2 A row 672 (dsDNA)
DNA 1: ATGTGCCCAAAGGATGTCACCGCAAAGATCATAGGA
DNA 2: TCCTATGATCTTTGCGGTGACATCCTTTGGGCACAT
B10: Table S4 A row 1105 (dsDNA)
DNA 1: GCCAGAGGGGCGGAAGAACCCGGAAGACCCAGGCAG
DNA 2: CTGCCTGGGTCTTCCGGGTTCTTCCGCCCCTCTGGC
B11: Table S4 A row 1584 (dsDNA)
DNA 1: TGTGTCGGACAGGAACTCGGCTTCCTTTGTGCCTCT
DNA 2: AGAGGCACAAAGGAAGCCGAGTTCCTGTCCGACACA
B12: Table S4 A row 761 (dsDNA)
DNA 1: TTGCCGGATGAGGTTGGTTGTCTCTAATTTCCTCTC
DNA 2: GAGAGGAAATTAGAGACAACCAACCTCATCCGGCAA
B13: Table S2 A row 140 (dsDNA)
DNA 1: AGTTACAGTAAAGGATGTGGTGAAACAGATGTTTAT
DNA 2: ATAAACATCTGTTTCACCACATCCTTTACTGTAACT
B14: Table S2 A row 1444 (dsDNA)
DNA 1: TGCTTAGCGGGAAGTGCTTACACCACAAAACAAGAC
DNA 2: GTCTTGTTTTGTGGTGTAAGCACTTCCCGCTAAGCA
B15: Table S2 A row 465 (dsDNA)
DNA 1: TGAGGGGCTCGCCGGGAAATGTGGTTTAGCGGCCCT
DNA 2: AGGGCCGCTAAACCACATTTCCCGGCGAGCCCCTCA
B16: Table S2 A row 1237 (dsDNA)
DNA 1: AGCCTACATCCTGCACTGCTTAACCACAGCCCGCCT
DNA 2: AGGCGGGCTGTGGTTAAGCAGTGCAGGATGTAGGCT
B17: Table S2 A row 1129 (dsDNA)
DNA 1: CACTTCCTCCTCGGGGGCCTCAGAAAACCACAGGGC
DNA 2: GCCCTGTGGTTTTCTGAGGCCCCCGAGGAGGAAGTG
B18: Table S4 A row 1346 (dsDNA)
DNA 1: TTCCCAGGAAGCCCCAAAGCCCTGGCTTCCGCCCAA
DNA 2: TTGGGCGGAAGCCAGGGCTTTGGGGCTTCCTGGGAA
B19: Table S2 A row 670 (dsDNA)
DNA 1: TGAGCACAGTATTTCCTGTGGTTTCTATTGCATTTC
DNA 2: GAAATGCAATAGAAACCACAGGAAATACTGTGCTCA
B20: Table S2 A row 1399 (dsDNA)
DNA 1: TCGCACCGGAACCCCTTGGCGGATTATGTGGGTTCC
DNA 2: GGAACCCACATAATCCGCCAAGGGGTTCCGGTGCGA
B21: Table S4 A row 1336 (dsDNA)
DNA 1: AGGTCGGAAGCGCTTCTACTGCAGCTCCGGAAAGGG
DNA 2: CCCTTTCCGGAGCTGCAGTAGAAGCGCTTCCGACCT
B22: Table S4 A row 1993 (dsDNA)
DNA 1: ATCACGGGGCCCATCCGGGGAGGAAGGCGGCACAGG
DNA 2: CCTGTGCCGCCTTCCTCCCCGGATGGGCCCCGTGAT
B23: Table S4 A row 2621 (dsDNA)
DNA 1: TGGAGCCGGGGGAAGTGGGAGCATCCGCAGCCCCGC
DNA 2: GCGGGGCTGCGGATGCTCCCACTTCCCCCGGCTCCA
B24: Table S4 A row 1074 (dsDNA)
DNA 1: CACGCACATCCCCAGTGAGTAACACTTCCTGAGGGC
DNA 2: GCCCTCAGGAAGTGTTACTCACTGGGGATGTGCGTG
B25: Table S4 A row 258 (dsDNA)
DNA 1: GCTTATCACTGAAGGAAACAGGATGCTAAATGTACG
DNA 2: CGTACATTTAGCATCCTGTTTCCTTCAGTGATAAGC
B26: Table S2 A row 712 (dsDNA)
DNA 1: GACTTTTACGGAAATAGCAGTCCAAAACCGCGTCTA
DNA 2: TAGACGCGGTTTTGGACTGCTATTTCCGTAAAAGTC
B27: Table S4 A row 1107 (dsDNA)
DNA 1: ACGGCCACCAGGAGGAAACTTCCTCTGAATCTTCCA
DNA 2: TGGAAGATTCAGAGGAAGTTTCCTCCTGGTGGCCGT
B28: Table S2 A row 1056 (dsDNA)
DNA 1: GGGTCTCCAGGAAGCCACTCACCACAAACTTTGACA
DNA 2: TGTCAAAGTTTGTGGTGAGTGGCTTCCTGGAGACCC
B29: Table S4 A row 273 (dsDNA)
DNA 1: TAATACAACTGGGGAAGTCACTTCCTTGCTGAGCTT
DNA 2: AAGCTCAGCAAGGAAGTGACTTCCCCAGTTGTATTA
B30: Table S4 A row 493 (dsDNA)
DNA 1: TGGTAAACGGAAGAGACCTCTCCTGTTCCGGGAGTA
DNA 2: TACTCCCGGAACAGGAGAGGTCTCTTCCGTTTACCA
B31: Table S2 A row 1529 (dsDNA)
DNA 1: GGTGCCTGGGGAGGATGTGGGCTGACTGGGAGGGGT
DNA 2: ACCCCTCCCAGTCAGCCCACATCCTCCCCAGGCACC
B32: Table S4 A row 1968 (dsDNA)
DNA 1: GTGATTGGCAGGATCCTGGTATCCGCTAACAGGTAC
DNA 2: GTACCTGTTAGCGGATACCAGGATCCTGCCAATCAC

Experiments:
[1] = target: ETS1:RUNX1 (Homo sapiens, UniProt P14921;Q01196 full;full); assay: gcPBM; 1 nM ETS1 + 25 nM RUNX1, anti-ETS1 signal, normalised; conditions: tags: N-terminal GST (pDEST15), kept (PMC6008103); copies: 1;1; label: surface-attached array probe
Chain of ETS1:RUNX1 (Q01196 whole entry, one chain of several): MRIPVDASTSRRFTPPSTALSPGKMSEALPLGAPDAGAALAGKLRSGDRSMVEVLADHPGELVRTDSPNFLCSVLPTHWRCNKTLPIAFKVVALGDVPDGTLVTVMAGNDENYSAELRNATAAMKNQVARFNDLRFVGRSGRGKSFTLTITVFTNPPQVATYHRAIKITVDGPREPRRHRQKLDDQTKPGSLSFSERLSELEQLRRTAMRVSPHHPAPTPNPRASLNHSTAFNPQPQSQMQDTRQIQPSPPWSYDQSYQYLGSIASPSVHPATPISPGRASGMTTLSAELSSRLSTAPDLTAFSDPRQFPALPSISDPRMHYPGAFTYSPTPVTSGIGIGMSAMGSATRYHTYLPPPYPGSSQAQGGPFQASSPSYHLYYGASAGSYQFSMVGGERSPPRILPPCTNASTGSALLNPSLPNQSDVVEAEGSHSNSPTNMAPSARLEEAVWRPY

[2] = target: T1, ETS1 x2; assay: gcPBM; 10 nM ETS1; conditions: tags: N-terminal GST (pDEST15), kept (PMC6008103); chain copies: 2; label: surface-attached array probe

| Binder | binding signal [1] | binding signal [2] |
| --- | --- | --- |
| B1 | 1620 PBM fluorescence, median of replicate spots |  |
| B2 |  | 912 PBM fluorescence, median of replicate spots |
| B3 |  | 645 PBM fluorescence, median of replicate spots |
| B4 | 1410 PBM fluorescence, median of replicate spots |  |
| B5 | 1320 PBM fluorescence, median of replicate spots |  |
| B6 | 1180 PBM fluorescence, median of replicate spots |  |
| B7 | 1350 PBM fluorescence, median of replicate spots |  |
| B8 | 1610 PBM fluorescence, median of replicate spots |  |
| B9 | 1400 PBM fluorescence, median of replicate spots |  |
| B10 |  | 832 PBM fluorescence, median of replicate spots |
| B11 |  | 1040 PBM fluorescence, median of replicate spots |
| B12 |  | 764 PBM fluorescence, median of replicate spots |
| B13 | 1480 PBM fluorescence, median of replicate spots |  |
| B14 | 1280 PBM fluorescence, median of replicate spots |  |
| B15 | 1230 PBM fluorescence, median of replicate spots |  |
| B16 | 1360 PBM fluorescence, median of replicate spots |  |

| Binder | binding signal [1] | binding signal [2] |
| --- | --- | --- |
| B17 | 1580 PBM fluorescence, median of replicate spots |  |
| B18 |  | 774 PBM fluorescence, median of replicate spots |
| B19 | 1550 PBM fluorescence, median of replicate spots |  |
| B20 | 1490 PBM fluorescence, median of replicate spots |  |
| B21 |  | 806 PBM fluorescence, median of replicate spots |
| B22 |  | 950 PBM fluorescence, median of replicate spots |
| B23 |  | 698 PBM fluorescence, median of replicate spots |
| B24 |  | 653 PBM fluorescence, median of replicate spots |
| B25 |  | 844 PBM fluorescence, median of replicate spots |
| B26 | 1340 PBM fluorescence, median of replicate spots |  |
| B27 |  | 872 PBM fluorescence, median of replicate spots |
| B28 | 1560 PBM fluorescence, median of replicate spots |  |
| B29 |  | 849 PBM fluorescence, median of replicate spots |
| B30 |  | 743 PBM fluorescence, median of replicate spots |
| B31 | 1520 PBM fluorescence, median of replicate spots |  |
| B32 |  | 599 PBM fluorescence, median of replicate spots |
